This data set in a line: amyloid nucleation score (Sup35N fusion, yeast selection) (log enrichment); library NNK1; higher = more nucleation; inactive = no reads after selection. In short, it runs like this:
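The nucleation score is the log enrichment of output over input reads, calculated with DiMSum and centred on the mode score of non-aggregating sequences. Sequences with under 100 input reads were excluded. Reads came from Illumina sequencing of plasmid inserts from psi-negative yeast expressing Sup35N fused to peptides of 20 random codons, induced 24 hours with 100 μM copper sulfate and grown 7 days at 30°C without adenine and uracil.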

± gives the uncertainty stated by the source.

Regarding IRCDKLISNSNMLGDKLTL, the amyloid nucleation score result is “inactive”.

On to WLSHGIEVVVHKTSSVSYWR, for which the amyloid nucleation score was -0.796 ± 1.1.

SAYSKILSLPVRMGVWVAHI registered an amyloid nucleation score of 0.658 ± 0.42.

Take IHWFVFYFLKKFCYYRSYAR: the amyloid nucleation score stood at 0.389 ± 0.4.

TWTCDSVCCVRNKEVCGVYQ gave an amyloid nucleation score of 0.033 ± 0.23.

Regarding KIICFRLKSPLVWKMYDKTG, the amyloid nucleation score is -0.699 ± 0.32.

In turn, TCNRHSDTEGLC registered an amyloid nucleation score of -1.13 ± 0.66.

Regarding VFGLAV, the amyloid nucleation score is -0.912 ± 1.1.

With LSQAASNLLSRNLVPLSWLV, the amyloid nucleation score entry was “inactive”.

With VSKRFRFLRTLFIEECDLRH, the amyloid nucleation score amounted to 0.576 ± 0.32.

Consider WIWVYQTNKIKEMFMRRVWL, for which the amyloid nucleation score result was “inactive”.

Substance LFLKRGPSCTCLLRKSTIEH came in with an amyloid nucleation score of 0.182 ± 0.69.

Substance ITVRATR came in with an amyloid nucleation score of -0.97 ± 1.7.

For the substance SIEGRSSIQATMCSMLLNGP, the amyloid nucleation score was -0.197 ± 0.39.

In turn, SITLS returned an amyloid nucleation score of -0.926 ± 1.8.

In turn, SFRCMEYSWGDWVINPPYLS came in with an amyloid nucleation score of 0.234 ± 0.62.

For the substance GSVSVSQQS, the amyloid nucleation score is -1.4 ± 2.4.

For the substance HNELCFMFYSLGNCYGAGVG, the amyloid nucleation score came out at 5.03 ± 0.095.

Substance MWSYNLYNLVVTS gave an amyloid nucleation score of 1.1 ± 0.28.

The substance CTFKAWRLYSVNKDSRIVLK had an amyloid nucleation score of -0.576 ± 1.1.

NGLSRYKKDLGLVDWYFGQM showed an amyloid nucleation score of 0.744 ± 0.37.

Substance PAVIILVIKMHGGIKGKDGR returned an amyloid nucleation score of -0.755 ± 0.44.

Regarding LSMGLR, the amyloid nucleation score is 0.388 ± 0.68.

For PCKSCGLKFTRW, the amyloid nucleation score was found to be 0.235 ± 0.39.

With SLIGYVIKW, the amyloid nucleation score was -0.095 ± 0.63.

For GLPVGQGGELDY, the amyloid nucleation score was found to be 2.32 ± 0.14.

LCLSCLWMGETRPRSNPVNL yielded an amyloid nucleation score of 6.24 ± 0.068.

Take RAVRVMRLSSGLSLGRPSDW: the amyloid nucleation score entry was “inactive”.

ADYVKMNRDFRVGTTYDMST gave an amyloid nucleation score of 1.18 ± 0.65.

RRHWTVMVMNIPVGMFIVIR showed an amyloid nucleation score of 0.155 ± 0.27.

Substance EIIFVRLGANEHWSHNVYVS showed an amyloid nucleation score of -0.746 ± 1.2.

For MVLTFAV, the amyloid nucleation score was -1.36 ± 2.4.

Consider TLSSRSYC, for which the amyloid nucleation score is 0.402 ± 0.33.

In turn, AVCIYRHRLVTGSWWLSIS gave an amyloid nucleation score of 0.359 ± 0.39.

In the case of MRTPGCVMF, the amyloid nucleation score was -0.44 ± 0.93.

YNIVPSADWVSWHGRLTGRR displayed an amyloid nucleation score of 1.42 ± 0.61.

In turn, TLVCNGQISTNLYYVKVGSS registered an amyloid nucleation score of 2.83 ± 0.12.

As for FSHGFMITICHWEMTKETDW, the amyloid nucleation score is -0.476 ± 0.37.

In the case of STNECSLLMGDSCGHHRSHC, the amyloid nucleation score is -0.171 ± 0.9.

The substance IFHGRNYSFSS came in with an amyloid nucleation score of -0.422 ± 0.45.

Take DGLKWVDWPWGHYGEMMVEM: the amyloid nucleation score is 1.01 ± 0.55.

With VIAMDNDRYFGSVFSYIRMN, the amyloid nucleation score is -0.147 ± 0.29.

For TSTYWQVDEAV, the amyloid nucleation score is -0.325 ± 0.52.

Substance AFRQVRKIVQAGTGGVQ displayed an amyloid nucleation score of -0.324 ± 0.58.

As to GIETRMDWEV, the amyloid nucleation score worked out at 1.67 ± 0.52.

Substance HCCSYLLKR had an amyloid nucleation score of -0.174 ± 0.61.

Substance CVSATRV gave an amyloid nucleation score of 0.042 ± 0.48.

On to TFWVGEKSRVGSVPFQYLRL, for which the amyloid nucleation score was -0.152 ± 0.31.

For MSCTVHLGLFMESTNHYCMC, the amyloid nucleation score entry was “inactive”.

Substance VNLRCRSTLEGSN showed an amyloid nucleation score of -0.077 ± 0.31.

The substance FVFKIWQSD had an amyloid nucleation score of 0.116 ± 0.58.

CLCSYYKILVYSSLVLDNAY gave an amyloid nucleation score of 0.58 ± 0.45.

Substance IRLRMWDHRWSTKGGSHTFL registered an amyloid nucleation score of -1.36 ± 0.95.

MNVFVSRNYVYLKYEFRSLA displayed an amyloid nucleation score of 6.642 ± 0.051.

As for TGFGKKRATGWVAWGWEKLL, the amyloid nucleation score was -0.468 ± 0.32.

In turn, CQVVLISWTGSHKGNLEHNA returned an amyloid nucleation score of 1.08 ± 0.3.

Substance SSVPHFAGSVVASDPPLYRL yielded an amyloid nucleation score of 0.949 ± 0.81.

The substance ERVSETRQSLTWNHNERIWL gave an amyloid nucleation score of 1.55 ± 0.12.

For the substance FVETS, the amyloid nucleation score stood at 0.198 ± 0.29.

Take SYSYIRLDNFSMFIYFADCS: the amyloid nucleation score amounted to 3.92 ± 0.066.

The substance LGRRIPCNLEWHHLDGALTR had an amyloid nucleation score of 0.013 ± 0.36.

With LYDFINYG, the amyloid nucleation score is -0.592 ± 1.2.

Turning to ISYSYVTIIA, the amyloid nucleation score was -0.181 ± 0.27.

MNLRETSAFSPCNEVL had an amyloid nucleation score of -0.063 ± 1.4.

With RGGNLSRAFNYVRYIITHKN, the amyloid nucleation score amounted to 0.145 ± 0.46.

Regarding TTMILWQTQYDYLG, the amyloid nucleation score was -0.247 ± 0.58.

In turn, DYKFRDRL came in with an amyloid nucleation score of 0.364 ± 0.32.

For the substance YIFAAWGGNKTHLCGQIKY, the amyloid nucleation score was 0.862 ± 0.18.

NWVAYIPKDNVWVVRGKLKG yielded an amyloid nucleation score of 0.753 ± 0.53.

As to VYSMVFLMPCNRHDSFGRYS, the amyloid nucleation score was found to be 6.578 ± 0.056.

As for RLVKSEDSNKNGLDLCRYEL, the amyloid nucleation score is 0.753 ± 0.56.

Turning to KTGTYWKSDGCVLWFGVKPA, the amyloid nucleation score is 0.32 ± 0.38.

For the substance YRPWMRYLTLIGNYRHAGHS, the amyloid nucleation score came to 0.633 ± 0.62.

With FPTFLPQWTGKCFALRCGRW, the amyloid nucleation score entry is “inactive”.

VCGGETLPRVVSNGGRSPRV came in with an amyloid nucleation score of 0.602 ± 0.35.

In the case of FGSDPISCGVWYMCVRGWYG, the amyloid nucleation score stood at 0.108 ± 0.3.

Consider AESSPSVG, for which the amyloid nucleation score was 0.271 ± 0.57.

In the case of ICVSSGSVIIIVTYFAKCPA, the amyloid nucleation score amounted to 0.484 ± 0.24.

Turning to AIQYILEQLEQSRRWGISVH, the amyloid nucleation score entry is “inactive”.

Substance WVVCVIDEGSSTFFINI showed an amyloid nucleation score of -0.556 ± 1.4.

CSTRLSSKFSDTIYVEVFSF: the amyloid nucleation score entry was “inactive”.

The substance ILLYVICQVVTTV had an amyloid nucleation score of 1.64 ± 0.34.

As for LCMVAQLWYQPV, the amyloid nucleation score was determined as 2.01 ± 0.16.

In turn, PYCFYPRCC showed an amyloid nucleation score of 0.015 ± 0.85.

YVAFEKTL: the amyloid nucleation score result was “inactive”.

Substance LYLFDPTNQKRFEVWKWK registered an amyloid nucleation score of 0.063 ± 0.49.

FRLEGRCSLLFCTCRLDV displayed an amyloid nucleation score of 0.561 ± 0.45.

HFIFEYTSFSS displayed an amyloid nucleation score of 0.307 ± 0.29.

Turning to SLSQG, the amyloid nucleation score amounted to 0.441 ± 0.93.

CLVWLGNNFLDSLWGEGGRA came in with an amyloid nucleation score of -0.291 ± 0.38.

Consider IKHFGISTR, for which the amyloid nucleation score worked out at 0.17 ± 0.79.

YSAITNGSFQVLV came in with an amyloid nucleation score of 0.17 ± 0.21.

In the case of NFRWILSSAMDAIFPYVAFV, the amyloid nucleation score came to 1.52 ± 0.78.

Take QVYLILTEMRMTF: the amyloid nucleation score worked out at 1.4 ± 0.13.

The substance RCGFSLNFC yielded an amyloid nucleation score of 3.2 ± 0.097.

YIKWSMIRFT came in with an amyloid nucleation score of -0.66 ± 0.46.

The substance AIVELLSWSQVTCALWGSIT displayed an amyloid nucleation score of 0.344 ± 0.69.

The substance FFIYPWFRMTFERRLDGELG registered an amyloid nucleation score of 1.62 ± 0.27.

For AAVGALGKSRSL, the amyloid nucleation score was 1.17 ± 0.73.

In turn, SPFMGCLYNLLDLDDGS had an amyloid nucleation score of -0.65 ± 0.51.

On to LTGASSNTSVLVNWGVASYC, for which the amyloid nucleation score stood at 1.13 ± 0.62.

FRSPN displayed an amyloid nucleation score of -0.285 ± 0.58.

In the case of LEGVFAAALSNKMIRYIRDV, the amyloid nucleation score was found to be 1.19 ± 0.53.

Substance VLDGNKLQSRSLSCSSWYLS came in with an amyloid nucleation score of 4.03 ± 0.12.

With VLPLQKPRDVGSVISARQWG, the amyloid nucleation score worked out at 0.837 ± 0.53.

The values are drawn from the supplement of paper PMC12042874.
